Assay results as given in patent US20190225979A1.

Molecular target: fetuin

recombinant protein of H5 hemagglutinin ectodomain (H5HA)
absorbance at 450 nm: 0.15 O.D. 450
